{
  "source": "patent US12234475B2",
  "about": "“Compositions and methods for therapeutic delivery” (GenVivo, Inc., priority 2021, dated 2025)",
  "tested_on": "mouse splenocytes",
  "assay": "IFN-γ production by ELISA after stimulating mouse splenocytes with IL-12 containing conditioned media",
  "format": "cell-based",
  "conditions": "summary, compared with commercial IL-12",
  "procedure": "Functionality of mIL-12 was examined by incubating mouse splenocytes with mIL-12 and measuring INF-γ. About 2×10^6 mouse splenocytes were stimulated with either commercial recombinant mouse IL-12 (rIL-12) or the CM from mIL-12 retroviral vector transduced and stably expressing A375 cells for 48 hours. Following stimulation, the CM from each culture was collected and measured for IFN-γ production by ELISA (FIG. 5).\nNext, CT26, murine colorectal carcinoma cell line was transduced with the mIL-12 retroviral vector and examined whether or not secreted mIL-12 can produce IFN-γ and activate inflammatory genes from immune cells. About 2×10^6 mouse splenocytes were stimulated with either commercial rIL-12 or the CM from mIL-12 expressing CT26 cells at the concentration of 2 ng/mL for 48 hours. Following stimulation, the supernatant and cells from each group were collected and analyzed for the production of IFN-γ via ELISA and the expression of inflammatory genes via qPCR. […] Some preliminary animal studies were performed by implanting 1.5×10^5 CT26 cells stably expressing luciferase gene or CT26 cells stably expressing luciferase and mIL-12 gene from the retroviral vector cells into the right shoulder flank. […] Bio-luminescence images of animals implanted with either CT26 expressing luciferase or luciferase and mIL-12 tumor cells are shown in FIG. 12. […]",
  "data": [
    {"molecule": "mIL-12: mouse IL-12 heterodimer of P40 and P35 secreted by cells transduced with the mIL-12 retroviral vector (protein, UniProt P43432 23-335; P43431 23-215, looked up) Interleukin-12 subunit beta: MWELEKDVYVVEVDWTPDAPGETVNLTCDTPEEDDITWTSDQRHGVIGSGKTLTITVKEFLDAGQYTCHKGGETLSHSHLLLHKKENGIWSTEILKNFKNKTFLKCEAPNYSGRFTCSWLVQRNMDLKFNIKSSSSSPDSRAVTCGMASLSAEKVTLDQRDYEKYSVSCQEDVTCPTAEETLPIELALEARQQNKYENYSTSFFIRDIIKPDPPKNLQMKPLKNSQVEVSWEYPDSWSTPHSYFSLKFFVRIQRKKEKMKETEEGCNQKGAFLVEKTSTEVQCKGGNVCVQAQDRYYNSSCSKWACVPCRVRS Interleukin-12 subunit alpha: RVIPVSGPARCLSQSRNLLKTTDDMVKTAREKLKHYSCTAEDIDHEDITRDQTSTLKTCLPLELHKNESCLATRETSSTTRGSCLPPQKTSLMMTLCLGSIYEDLKMYQTEFQAINAALQNHNHQQIILDKGMLVAIDELMQSLNHNGETLRQKPPVGEADPYRVKMKLCILLHAFSTRVVTINRVMGYLSSA", "values": [
      {"measurement": "T-cell activation and IFN-γ production in vitro", "value": "as functionally effective as commercial IL-12"}
    ]}
  ]
}
